Laboratory results from PMC10397247.
Blank lines part the entries; values can stand above or below the binder they belong to.

What was measured:
Assay in all cases: two-hybrid library CCNG1;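 also: natural log of median RNA to DNA barcode read ratio; higher means stronger binding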
4H3414-bH = target: T1, 4H3414-bH
T1 chain: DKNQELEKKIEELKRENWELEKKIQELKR

4H3858-bH = target: T2, 4H3858-bH
T2 chain: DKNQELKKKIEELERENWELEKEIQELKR

4H626-bH = target: T3, 4H626-bH
T3 chain: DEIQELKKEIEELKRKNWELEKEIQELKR

4H1710-bH = target: T4, 4H1710-bH
T4 chain: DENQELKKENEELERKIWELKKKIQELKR

4H3613-bH = target: T5, 4H3613-bH
T5 chain: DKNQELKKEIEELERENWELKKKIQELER

4H3628-bH = target: T6, 4H3628-bH
T6 chain: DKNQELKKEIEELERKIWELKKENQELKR

4H3298-bH = target: T7, 4H3298-bH
T7 chain: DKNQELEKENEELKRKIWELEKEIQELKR

4H3462-bH = target: T8, 4H3462-bH
T8 chain: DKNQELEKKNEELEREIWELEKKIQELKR

4H3162-bH = target: T9, 4H3162-bH
T9 chain: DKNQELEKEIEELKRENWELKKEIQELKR

4H591-bH = target: T10, 4H591-bH
T10 chain: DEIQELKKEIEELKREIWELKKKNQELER

4H3817-bH = target: T11, 4H3817-bH
T11 chain: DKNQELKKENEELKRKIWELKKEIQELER

4H3381-bH = target: T12, 4H3381-bH
T12 chain: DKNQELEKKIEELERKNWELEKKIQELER

4H570-bH = target: T13, 4H570-bH
T13 chain: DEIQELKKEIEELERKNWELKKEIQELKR

4H3129-bH = target: T14, 4H3129-bH
T14 chain: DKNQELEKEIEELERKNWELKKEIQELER

4H3631-bH = target: T15, 4H3631-bH
T15 chain: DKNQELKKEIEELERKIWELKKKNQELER

4H3277-bH = target: T16, 4H3277-bH
T16 chain: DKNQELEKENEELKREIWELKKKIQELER

4H3974-bH = target: T17, 4H3974-bH
T17 chain: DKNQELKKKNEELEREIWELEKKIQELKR

4H3175-bH = target: T18, 4H3175-bH
T18 chain: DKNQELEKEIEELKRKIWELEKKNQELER

4H906-bH = target: T19, 4H906-bH
T19 chain: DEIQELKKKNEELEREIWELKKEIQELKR

4H1804-bH = target: T20, 4H1804-bH
T20 chain: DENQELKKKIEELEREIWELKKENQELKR

4H1899-bH = target: T21, 4H1899-bH
T21 chain: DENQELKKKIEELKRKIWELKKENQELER

4H3172-bH = target: T22, 4H3172-bH
T22 chain: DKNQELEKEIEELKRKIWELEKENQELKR

4H3638-bH = target: T23, 4H3638-bH
T23 chain: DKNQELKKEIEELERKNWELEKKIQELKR

4H619-bH = target: T24, 4H619-bH
T24 chain: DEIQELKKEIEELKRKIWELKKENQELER

4H3497-bH = target: T25, 4H3497-bH
T25 chain: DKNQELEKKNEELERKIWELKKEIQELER

4H3926-bH = target: T26, 4H3926-bH
T26 chain: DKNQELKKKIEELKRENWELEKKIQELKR

4H850-bH = target: T27, 4H850-bH
T27 chain: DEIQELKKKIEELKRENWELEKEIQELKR

4H1985-bH = target: T28, 4H1985-bH
T28 chain: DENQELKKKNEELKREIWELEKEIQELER

4H584-bH = target: T29, 4H584-bH
T29 chain: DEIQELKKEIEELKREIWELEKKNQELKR

P5mSN = target: T30, P5mSN
T30 chain: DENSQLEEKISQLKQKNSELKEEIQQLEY

P8mSN = target: T31, P8mSN
T31 chain: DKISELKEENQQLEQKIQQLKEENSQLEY

P9mSN = target: T32, P9mSN
T32 chain: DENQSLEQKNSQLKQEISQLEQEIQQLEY

P6mSN = target: T33, P6mSN
T33 chain: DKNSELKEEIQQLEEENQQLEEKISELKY

P7mSN = target: T34, P7mSN
T34 chain: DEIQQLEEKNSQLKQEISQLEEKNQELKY

P4mSN = target: T35, P4mSN
T35 chain: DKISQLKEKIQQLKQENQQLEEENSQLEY

4H906-bN = target: T36, 4H906-bN
T36 chain: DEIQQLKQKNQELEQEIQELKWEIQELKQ

4H1804-bA = target: T37, 4H1804-bA
T37 chain: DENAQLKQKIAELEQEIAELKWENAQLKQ

4H584-bA = target: T38, 4H584-bA
T38 chain: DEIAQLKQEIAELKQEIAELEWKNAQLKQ

4H3817-bA = target: T39, 4H3817-bA
T39 chain: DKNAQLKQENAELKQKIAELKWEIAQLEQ

4H3631-bA = target: T40, 4H3631-bA
T40 chain: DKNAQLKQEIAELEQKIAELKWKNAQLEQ

4H619-bA = target: T41, 4H619-bA
T41 chain: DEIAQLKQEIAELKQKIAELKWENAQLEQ

4H850-bA = target: T42, 4H850-bA
T42 chain: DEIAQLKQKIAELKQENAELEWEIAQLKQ

4H3129-bA = target: T43, 4H3129-bA
T43 chain: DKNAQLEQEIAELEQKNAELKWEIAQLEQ

4H3172-bA = target: T44, 4H3172-bA
T44 chain: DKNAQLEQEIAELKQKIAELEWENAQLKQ

4H906-bA = target: T45, 4H906-bA
T45 chain: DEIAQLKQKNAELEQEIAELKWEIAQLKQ

4H3414-bA = target: T46, 4H3414-bA
T46 chain: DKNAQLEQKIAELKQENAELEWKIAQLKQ

4H3638-bA = target: T47, 4H3638-bA
T47 chain: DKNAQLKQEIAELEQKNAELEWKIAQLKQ

4H1985-bA = target: T48, 4H1985-bA
T48 chain: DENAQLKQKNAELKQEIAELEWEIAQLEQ

4H3974-bA = target: T49, 4H3974-bA
T49 chain: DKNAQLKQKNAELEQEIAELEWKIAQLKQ

4H570-bA = target: T50, 4H570-bA
T50 chain: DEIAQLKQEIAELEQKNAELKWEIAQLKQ

4H626-bA = target: T51, 4H626-bA
T51 chain: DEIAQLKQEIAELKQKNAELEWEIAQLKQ

4H3926-bA = target: T52, 4H3926-bA
T52 chain: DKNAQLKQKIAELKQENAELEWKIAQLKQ

O14-bA = target: T53, O14-bA
T53 chain: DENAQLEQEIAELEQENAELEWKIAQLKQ

4H3277-bA = target: T54, 4H3277-bA
T54 chain: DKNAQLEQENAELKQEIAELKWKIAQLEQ

4H3858-bA = target: T55, 4H3858-bA
T55 chain: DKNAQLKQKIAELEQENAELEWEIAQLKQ

4H3613-bA = target: T56, 4H3613-bA
T56 chain: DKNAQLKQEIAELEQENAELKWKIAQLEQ

4H3175-bA = target: T57, 4H3175-bA
T57 chain: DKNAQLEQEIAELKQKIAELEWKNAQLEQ

4H591-bA = target: T58, 4H591-bA
T58 chain: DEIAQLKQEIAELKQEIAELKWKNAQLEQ

4H3462-bA = target: T59, 4H3462-bA
T59 chain: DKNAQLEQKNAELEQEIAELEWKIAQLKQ

4H3497-bA = target: T60, 4H3497-bA
T60 chain: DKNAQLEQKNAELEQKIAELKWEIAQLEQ

4H1710-bA = target: T61, 4H1710-bA
T61 chain: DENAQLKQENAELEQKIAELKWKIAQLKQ

4H3298-bA = target: T62, 4H3298-bA
T62 chain: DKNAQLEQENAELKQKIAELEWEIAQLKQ

4H3628-bA = target: T63, 4H3628-bA
T63 chain: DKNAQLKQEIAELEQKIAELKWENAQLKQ

4H3855-bA = target: T64, 4H3855-bA
T64 chain: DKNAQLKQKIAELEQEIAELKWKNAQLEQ

4H3162-bA = target: T65, 4H3162-bA
T65 chain: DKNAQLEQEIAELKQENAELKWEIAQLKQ

4H1899-bA = target: T66, 4H1899-bA
T66 chain: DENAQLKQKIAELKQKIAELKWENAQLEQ

B1: 4H1710-bH (peptide)
chain: DENQELKKENEELERKIWELKKKIQELKR
interaction score (4H3414-bH): -0.234
interaction score (4H3858-bH): -0.238
interaction score (4H626-bH): 0.853
interaction score (4H1710-bH): 0.661
interaction score (4H3613-bH): -0.955
interaction score (4H3628-bH): 1.35
interaction score (4H3298-bH): -0.00934
interaction score (4H3462-bH): 0.869
interaction score (4H3162-bH): -0.655
interaction score (4H591-bH): -1.94
interaction score (4H3817-bH): 0.823
interaction score (4H3381-bH): -1.3
interaction score (4H570-bH): -0.481
interaction score (4H3129-bH): 0.0138
interaction score (4H3631-bH): 0.643
interaction score (4H3277-bH): 0.846
interaction score (4H3974-bH): 0.887
interaction score (4H3175-bH): 0.0594
interaction score (4H906-bH): -0.745
interaction score (4H1804-bH): -0.929
interaction score (4H1899-bH): 0.26
interaction score (4H3172-bH): 0.358
interaction score (4H3638-bH): -0.567
interaction score (4H619-bH): 0.404
interaction score (4H3497-bH): 0.794
interaction score (4H3926-bH): 0.806
interaction score (4H850-bH): 0.221
interaction score (4H1985-bH): 0.219
interaction score (4H584-bH): 0.848

B4: 4H906-bN (peptide)
chain: DEIQQLKQKNQELEQEIQELKWEIQELKQ
interaction score (P4mSN): -1.42
interaction score (4H906-bN): -0.198

B6: 4H1710-bA (peptide)
chain: DENAQLKQENAELEQKIAELKWKIAQLKQ
interaction score (4H626-bA): -0.621
interaction score (4H3926-bA): 0.352
interaction score (4H1804-bA): -0.669
interaction score (O14-bA): -1.06
interaction score (4H584-bA): -0.0679
interaction score (4H3277-bA): -0.282
interaction score (4H3858-bA): 0.318
interaction score (4H3613-bA): 0.262
interaction score (4H3817-bA): 1.53
interaction score (4H3175-bA): -0.421
interaction score (4H3631-bA): 1.48
interaction score (4H619-bA): 0.519
interaction score (4H591-bA): -1.11
interaction score (4H850-bA): 0.0118
interaction score (4H3462-bA): 1.04
interaction score (4H3497-bA): 1.01
interaction score (4H1710-bA): 0.102
interaction score (4H3298-bA): 0.819
interaction score (4H3129-bA): 0.367
interaction score (4H3172-bA): -0.97
interaction score (4H3628-bA): 0.848
interaction score (4H906-bA): 0.904
interaction score (4H3855-bA): 0.515
interaction score (4H3414-bA): -0.541
interaction score (4H3638-bA): 0.729
interaction score (4H3162-bA): -0.713
interaction score (4H1985-bA): 2.11
interaction score (4H3974-bA): 1.34
interaction score (4H570-bA): -1.24
interaction score (4H1899-bA): -0.115

The remaining lines, values ahead:

interaction score (P5mSN): -1.42
interaction score (P8mSN): -1.53
interaction score (P9mSN): -1.07
interaction score (P6mSN): -0.838
interaction score (P7mSN): -1.04
interaction score (P4mSN): -1.76
B2: P4mSN (peptide)
chain: DKISQLKEKIQQLKQENQQLEEENSQLEY

interaction score (4H3414-bH): -0.0322
interaction score (4H3817-bH): -0.0504
interaction score (4H570-bH): -0.192
interaction score (4H3129-bH): -0.437
interaction score (4H3631-bH): -0.276
interaction score (4H3974-bH): -0.359
interaction score (4H906-bH): -0.842
interaction score (4H1804-bH): 0.525
interaction score (4H3172-bH): -0.154
interaction score (4H3638-bH): -0.512
interaction score (4H619-bH): -0.693
interaction score (4H850-bH): -0.238
interaction score (4H1985-bH): 0.0377
interaction score (4H584-bH): 0.198
B3: 4H1804-bH (peptide)
chain: DENQELKKKIEELEREIWELKKENQELKR

interaction score (4H1804-bA): 0.9
interaction score (4H584-bA): -0.489
interaction score (4H3817-bA): -0.0173
interaction score (4H3631-bA): 0.394
interaction score (4H619-bA): -1.65
interaction score (4H850-bA): -0.531
interaction score (4H3129-bA): 0.386
interaction score (4H3172-bA): -0.016
interaction score (4H906-bA): -0.55
interaction score (4H3414-bA): -0.0712
interaction score (4H3638-bA): -0.376
interaction score (4H1985-bA): -0.729
interaction score (4H3974-bA): -0.32
interaction score (4H570-bA): -0.765
B5: 4H1804-bA (peptide)
chain: DENAQLKQKIAELEQEIAELKWENAQLKQ
